B1: Rho-related BTB domain-containing protein 2 (Homo sapiens), Q9BYZ6-2 (parent)
chain: MQAWRKGPDGPQKTSSDSMSRLMDSDMDYERPNVETIKCVVVGDNAVGKTRLICARACNATLTQYQLLATHVPTVWAIDQYRVCQEVLERSRDVVDDVSVSLRLWDTFGDHHKDRRFAYGRSDVVVLCFSIANPNSLHHVKTMWYPEIKHFCPRAPVILVGCQLDLRYADLEAVNRARRPLARPIKPNEILPPEKGREVAKELGIPYYETSVVAQFGIKDVFDNAIRAALISRRHLQFWKSHLRNVQRPLLQAPFLPPKPPPPIIVVPDPPSSSEECPAHLLEDPLCADVILVLQERVRIFAHKIYLSTSSSKFYDLFLMDLSEGELGGPSEPGGTHPEDHQGHSDQHHHHHHHHHGRDFLLRAASFDVCESVDEAGGSGPAGLRASTSDGILRGNGTGYLPGRGRVLSSWSRAFVSIQEEMAEDPLTYKSRLMVVVKMDSSIQPGPFRAVLKYLYTGELDENERDLMHIAHIAELLEVFDLRMMVANILNNEAFMNQEITKAFHVRRTNRVKECLAKGTFSDVTFILDDGTISAHKPLLISSCDWMAAMFGGPFVESSTREVVFPYTSKSCMRAVLEYLYTGMFTSSPDLDDMKLIILANRLCLPHLVALTEQYTVTGLMEATQMMVDIDGDVLVFLELAQFHCAYQLADWCLHHICTNYNNVCRKFPRDMKAMSPENQEYFEKHRWPPVWYLKEEDHYQRARKEREKEDYLHLKRQPKRRWLFWNSPSSPSSSAASSSSPSSSSAVV

Variants of: B1
Conditions: with cul3_human CUL3, Q13618

Effect of a mutation on the interaction, with no effect:
R483H
R511Q
A474G

Source: IntAct's records for PubMed 29276004
